Measurements reported in patent US12383572B2, “Administration of an anti-activin-a compound to a subject” (AMGEN INC., priority 2013, dated 2025).
“Also recorded” adds a separate entry of the source.

Columns and labels:
[1] = test system: TOV-21G, MRC-5, CCD-Lu and THP-1 cell cultures; assay: VEGF and Ang-1 ELISA of cell culture medium after recombinant activin-A; type: cell-based, human; conditions: sActRIIB added with activin-A
Protocol: The serum VEGF levels in inh-KO mice were measured by using immunoassay kit (R & D Systems), and the levels of human VEGF and Ang-1 in cell line culture medium were quantified using ELISA kits purchased from Invitrogen (VEGF) and R & D Systems (Ang-1), by following the manufacturers' recommended protocols.

TOV-21G xenografts [2] = assay: TOV-21G xenograft in abdominal flank, hu-sActRIIB-Fc alone or with 5-FU: tumor growth; type: in vivo, human; conditions: 52 days after tumor cell injection, versus vehicle-treated tumor-bearing group
Protocol: (§1) In another experiment, athymic nude mice received TOV-21G xenografts in the abdominal flank. After 14 days, subcutaneous hu-sActRIIB-Fc was administered weekly alone or in combination with 5-FU.

[3] = test system: TOV-21G, BAEC, MRC-5, CCD-Lu, U937 and THP-1 cultures; assay: Real-time RT-PCR of VEGF, Ang-1 and βA in cell cultures treated with recombinant activin-A; type: cell-based; conditions: sActRIIB added with recombinant activin-A
Description: ID NO: 291), [NT] ID NO: 292), and TaqMan probe [NT] ID NO: 293).

[4] = test system: endoglin, osteopontin, IGFBP-1, and IGFPB-2; assay: Western blot of endoglin, osteopontin, IGFBP-1, IGFBP-2 in inh-KO ovarian tumors; type: in vivo, mouse; conditions: inh-KO mice
Protocol: Protein extracts were prepared from cell cultures or tissues in T-PER tissue protein extraction reagent (Pierce) containing a mixture of protease inhibitors (Roche). A pool of 50 μg total protein for each group containing equal amounts of protein extract isolated from individual animals was separated by NuPAGE 4-12% Bis-Tris gel (Invitrogen) and transferred to PVDF. The membranes were probed with primary antibodies against total Smad2, p-Smad2 or E-cadherin (1:1000; Cell Signaling), endoglin, osteopontin (1:500; R & D Systems), IGFBP-1, IGFBP-2 (1:500; Abcam) followed by HRP-conjugated secondary antibody (1:2000; Cell Signaling). The membranes were stripped and re-probed with antibody against α-tubulin (1:1000; Cell Signaling).

[5] = test system: ovarian tumors in inh-KO mice; assay: Ovarian tumor mass by necropsy in female inh-KO mice; type: in vivo, mouse; conditions: 12-week-old female inh-KO mice, single injection 30 mg/kg SC, necropsy 14 days after
Protocol: Inh-KO mice. 12-week-old female and 8-week-old male inh-KO mice with fully established ovarian or testicular tumors received a single injection of PBS or sActRIIB (30 mg/kg, SC). As a control, age-matched wild-type littermates received a single injection of PBS. Ovarian and testicular organ weights were determined by necropsy 14 days after the injection.

TOV-21G xenografts [6] = assay: TOV-21G xenograft, sActRIIB and 5-FU chemotherapy combination; type: in vivo, human; conditions: nude mice; sActRIIB 10 mg/kg SC 1x/week, 5-FU 50 mg/kg IP 3 cycles, alone or together
Protocol: TOV-21G xenograft. 5×10^6 TOV-21G ovarian cancer cells were implanted subcutaneously into individual female athymic nu/nu mice (Harlan). Treatment was initiated at day 12 after tumor implantation, when the average tumor volume reached approximately 150 mm^3. The mice received PBS, sActRIIB (30 mg/kg, SC, 1×/week) or activin-A antibody (30 mg/kg, SC, 2×/week). In a separate chemotherapy combination experiment, the mice were treated with PBS, sActRIIB (10 mg/kg, SC, 1×/week), 5-FU (50 mg/kg, IP, 3 cycles, 4 daily injections per cycle) or sActRIIB and 5-FU combination at the same doses above. For all xenograft experiments, the tumor sizes were measured longitudinally by using an electronic caliper. Immediately prior to the 1st dose, the tumor-bearing mice were randomized to ensure even distribution in tumor sizes across different groups. Tumor volumes (mm^3) were calculated as tumor length (mm)×tumor width (mm)×tumor height (mm). Tumor weights were determined by necropsy.

[7] = test system: G361 human melanoma xenografts; assay: G361 melanoma xenograft growth in nude mice; type: in vivo; conditions: sActRIIB 20 mg/kg SC 1x/week from day 14
Protocol: G361 and 5637 xenografts. 5×10^6 G361 melanoma cells and 5637 bladder carcinoma cells, respectively, were inoculated SC into individual athymic nu/nu mice (Harlan Inc). Treatment was initiated 4 days after 5637 implantation and 14 days after G361 implantation, when the tumor volumes reached 130 mm^3−150 mm^3. 5637-implanted mice received PBS or activin-A antibody (10 mg/kg, SC, 2×/week). G361-implanted mice received PBS or sActRIIB (20 mg/kg, SC, 1×/week).
For all xenograft experiments, the tumor sizes were measured longitudinally by using an electronic caliper. Immediately prior to the 1st dose, the tumor-bearing mice were randomized to ensure even distribution in tumor sizes across different groups. Tumor volumes (mm^3) were calculated as tumor length (mm)×tumor width (mm)×tumor height (mm). Tumor weights were determined by necropsy.

[8] = TOV-21G xenograft, hu-sActRIIB-Fc alone or with 5-FU: body weight; type: in vivo, mouse; conditions: TOV-21G tumor-bearing athymic nude mice
Protocol: as §1

[9] = test system: ovarian tumors in Inhα KO mice; assay: sActRIIB single dose, withdrawal and re-administration in female Inhα KO mice: ovarian tumor weight; type: in vivo, mouse
Protocol: Eleven-to-fourteen-week-old female Inhα KO mice with body weight from 19.41 to 26.82 grams were subcutaneously (SC) injected with either 30 mg/kg sActRIIB or PBS. Age-matched WT littermate control mice were injected with PBS and served as baseline controls. The study ended by necropsy 2 weeks after injections. Two cohorts of mice were used in the study. Eleven-to-thirteen-week-old female Inhα KO mice with body weight from 17.7 to 27.4 grams were SC injected with either 30 mg/kg sAcLRIIB or PBS. Age-matched WT littermate control mice were injected with PBS and served as baseline controls. The withdrawal lasted for 8 weeks. At the end of the withdrawal, the sActRIIB treated mice were divided by balanced body weight into 2 groups (Group 3 and Group 4).
Group 2 and Group 3 were euthanized to examine the ovarian tumors. Group 4 received another dose of 30 mg/kg sActRIIB and the mice were euthanized together with the WT mice 4 weeks later (total 12 weeks). Mouse body weights were recorded once per week up to 12 weeks. For necropsy, mice were euthanized in a CO2 chamber. Normal ovaries in WT mice and ovarian tumors in Inhα KO mice were collected and weighed. All results were expressed as the mean±standard error of the mean (SEM). Statistical significance of difference between groups was analyzed using Student's 2-tailed t-test on MS Excel 5.0 software. The Chi-Square test (GraphPad Software Inc, San Diego, CA) was used to examine the differences in animal survival time. Statistical significance between groups is represented by p<0.05 values.

TOV-21G cancer cells = assay: In vitro proliferation assay (IncuCyte live cell imaging); type: cell-based, human; conditions: increasing concentrations
Protocol: In vitro growth rates of TOV-21G cancer cells were analyzed by using a real-time live cell imaging system (IncuCyte) following the manufacturer's recommended protocol.

B1: sActRIIB: extracellular domain of human activin type-2B receptor fused to IgG2 Fc; full length SEQ ID NO: 21 (Table 9) (protein, listed as Homo sapiens)
chain: ETRWCIYYNANWELERTNQSGLERCEGEQDKRLHCYASWRNSSGTIELVKKGCWLDDFNCYDRQECVATEENPQVYFCCCEGNFCNERFTHLPEAGGPEVTYEPPPTAPTGGGGSVECPPCPAPPVAGPSVFLFPPKPKDTLMISRTPEVTCVVVDVSHEDPEVQFNWYVDGVEVHNAKTKPREEQFNSTFRVVSVLTVVHQDWLNGKEYKCKVSNKGLPAPIEKTISKTKGQPREPQVYTLPPSREEMTKNQVSLTCLVKGFYPSDIAVEWESNGQPENNYKTTPPMLDSDGSFFLYSKLTVDKSRWQQGNVFSCSVMHEALHNHYTQKSLSLSPGK
activin-A-induced release of angiogenic factors (ELISA) [1]: blocked completely this activin-A-induced release of angiogenic factors | tumor growth reduction (TOV-21G xenografts [2]): 43% | induction of VEGF and Ang-1 mRNA by recombinant activin-A [3]: prevented this induction of VEGF and Ang-1 | induction of βA expression by recombinant activin-A [3]: blocked completely | induction of endoglin, osteopontin, IGFBP-1 and IGFBP-2 proteins [4]: abolished completely | ovarian tumor mass [5]: regressed rapidly to the sizes seen in the WT control mice | rate of tumor growth (TOV-21G xenografts [6]): decreased the rate of tumor growth significantly | growth rate and size of G361 xenografts [7]: significantly decreased the growth rates and sizes | body weight increase during the experiment [8]: 26% | ovarian tumor weight at 8 weeks after withdrawal from the initial single dose ([9]; 30 mg/kg SC): grown in size similar to that of the PBS-treated Inhα KO mice | ovarian tumor weight two weeks after a single dose ([9]; 30 mg/kg SC): reduced to the WT control level | ovarian tumor mass at week 12 (4 weeks after re-administration) ([9]; re-administration 30 mg/kg at week 8, 30 mg/kg): effectively reduced the tumor mass; also recorded: effectively regressed the ovarian tumor mass to the size of the WT control group | TOV-21G cell proliferation in vitro (TOV-21G cancer cells): no direct effect on TOV-21G cell proliferation in vitro
